Assay results as given in PMC4631838, “Molecular architecture of the yeast Mediator complex” (eLife, 2015).
One block for each binder: values may come before it.

What was measured:
Test in all cases: cross-linking; BS3 (unlabeled, or 50:50 with 2H12-labeled BS3) on the purified native holoenzyme; 150 mM NaPO4, 150 mM KOAc, pH 7.5, 5% glycerol, 2 mM DTT; procedure A 2.7 mM reagent 120 min on ice; trypsin digest, LC-MS/MS, Protein Prospector
Conditions in all cases: both partners purified
[1] = target: T1, Med1, Mediator Middle module subunit (S. cerevisiae, UniProt Q12321 1-566)
T1 construct: Med1, S. cerevisiae, endogenous; source: endogenous, S. cerevisiae CB010 double-tagged strain; within the purified native holoenzyme
T1 sequence (looked up): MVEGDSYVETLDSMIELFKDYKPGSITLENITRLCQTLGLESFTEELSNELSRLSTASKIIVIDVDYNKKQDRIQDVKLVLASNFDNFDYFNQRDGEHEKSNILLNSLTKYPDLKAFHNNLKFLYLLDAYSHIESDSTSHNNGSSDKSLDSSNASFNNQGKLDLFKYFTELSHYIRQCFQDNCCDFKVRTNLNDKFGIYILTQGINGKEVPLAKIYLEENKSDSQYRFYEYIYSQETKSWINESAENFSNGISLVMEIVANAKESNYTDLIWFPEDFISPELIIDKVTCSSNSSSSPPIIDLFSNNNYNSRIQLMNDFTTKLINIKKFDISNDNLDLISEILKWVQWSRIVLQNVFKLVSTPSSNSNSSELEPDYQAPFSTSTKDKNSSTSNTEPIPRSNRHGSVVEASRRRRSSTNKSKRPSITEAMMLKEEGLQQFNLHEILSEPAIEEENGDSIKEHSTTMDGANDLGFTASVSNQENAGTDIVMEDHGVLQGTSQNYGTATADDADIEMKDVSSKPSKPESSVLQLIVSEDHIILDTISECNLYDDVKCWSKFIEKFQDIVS

[2] = target: T2, Med14 (Rgr1), Mediator subunit (S. cerevisiae, UniProt P19263 1-1082)
T2 construct: Med14 (Rgr1), S. cerevisiae, endogenous, residues 1-1082 spoken of; source: endogenous, S. cerevisiae CB010 double-tagged strain; within the purified native holoenzyme
T2 sequence (looked up): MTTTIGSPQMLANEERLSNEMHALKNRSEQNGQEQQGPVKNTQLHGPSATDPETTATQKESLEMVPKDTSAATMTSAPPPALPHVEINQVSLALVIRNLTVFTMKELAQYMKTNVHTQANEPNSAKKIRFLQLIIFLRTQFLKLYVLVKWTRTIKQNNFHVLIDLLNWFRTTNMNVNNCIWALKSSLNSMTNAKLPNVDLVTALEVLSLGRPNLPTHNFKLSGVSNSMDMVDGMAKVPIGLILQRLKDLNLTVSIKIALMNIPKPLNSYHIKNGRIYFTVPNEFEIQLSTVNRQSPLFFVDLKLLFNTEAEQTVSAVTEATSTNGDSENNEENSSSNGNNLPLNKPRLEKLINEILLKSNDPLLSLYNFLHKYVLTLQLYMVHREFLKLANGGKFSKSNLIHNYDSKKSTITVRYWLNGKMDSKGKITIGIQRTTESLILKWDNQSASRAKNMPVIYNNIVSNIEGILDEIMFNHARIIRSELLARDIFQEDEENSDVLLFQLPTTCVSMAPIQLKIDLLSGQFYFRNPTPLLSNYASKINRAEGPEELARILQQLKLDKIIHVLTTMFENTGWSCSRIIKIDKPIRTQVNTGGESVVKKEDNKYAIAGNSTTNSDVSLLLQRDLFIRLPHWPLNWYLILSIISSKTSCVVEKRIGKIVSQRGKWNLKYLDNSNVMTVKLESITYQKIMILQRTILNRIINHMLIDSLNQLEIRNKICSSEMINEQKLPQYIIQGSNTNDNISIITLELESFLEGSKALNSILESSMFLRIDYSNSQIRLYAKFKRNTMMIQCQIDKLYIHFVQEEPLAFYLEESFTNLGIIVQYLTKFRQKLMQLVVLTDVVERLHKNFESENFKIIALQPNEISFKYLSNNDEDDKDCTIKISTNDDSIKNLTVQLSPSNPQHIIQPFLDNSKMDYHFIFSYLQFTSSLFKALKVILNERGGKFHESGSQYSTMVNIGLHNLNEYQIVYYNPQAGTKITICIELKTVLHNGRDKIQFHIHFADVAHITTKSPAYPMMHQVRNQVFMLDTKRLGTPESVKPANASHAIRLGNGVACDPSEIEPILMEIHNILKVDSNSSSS

[3] = target: T3, Med17 (Srb4), Mediator Head module subunit (S. cerevisiae, UniProt P32569 1-687)
T3 construct: Med17 (Srb4), S. cerevisiae, endogenous, residues 1-687 spoken of; cross-linking was done after cleavage; also called Med17p; source: endogenous, S. cerevisiae CB010 double-tagged strain; within the purified native holoenzyme; not shown: TAP, N-terminal, cleaved
T3 sequence (looked up): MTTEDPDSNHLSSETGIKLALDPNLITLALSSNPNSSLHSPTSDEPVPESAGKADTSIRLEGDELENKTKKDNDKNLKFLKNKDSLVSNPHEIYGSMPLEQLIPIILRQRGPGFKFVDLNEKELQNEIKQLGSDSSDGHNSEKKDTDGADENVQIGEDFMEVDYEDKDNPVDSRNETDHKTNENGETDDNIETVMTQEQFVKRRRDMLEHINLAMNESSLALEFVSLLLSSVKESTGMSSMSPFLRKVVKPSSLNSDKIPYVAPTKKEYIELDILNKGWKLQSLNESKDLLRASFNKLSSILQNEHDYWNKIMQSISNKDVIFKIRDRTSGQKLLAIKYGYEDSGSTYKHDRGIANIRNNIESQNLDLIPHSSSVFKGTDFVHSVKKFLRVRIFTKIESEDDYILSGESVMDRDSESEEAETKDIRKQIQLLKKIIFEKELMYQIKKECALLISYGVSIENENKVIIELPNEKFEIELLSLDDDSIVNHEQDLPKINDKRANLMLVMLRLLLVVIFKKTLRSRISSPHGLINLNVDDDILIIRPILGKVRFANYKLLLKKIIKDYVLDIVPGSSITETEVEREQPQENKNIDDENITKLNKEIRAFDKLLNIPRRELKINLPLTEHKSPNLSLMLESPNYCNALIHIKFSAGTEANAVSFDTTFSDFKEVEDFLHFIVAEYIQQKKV

binding result [1]: binds
binding result [2]: binds
B1: Med9 (Cse2), Mediator Middle module subunit (natural protein, S. cerevisiae, UniProt P33308 1-149, looked up)
chain: MNLQNNVLNQIHQILLPTNPTLDKPNAEATKEEFSSAENRDEKDYLTNQQPKNLSTPSTSSNGEFIPHIFYSLHQIRKDPNNLSNQLETLTGSIRHRLKLCKSLISENEDTKDLLSKSPSEWQDIIHQREQELQIKRDVLDDLYRKLQR
notes: Med9 (Cse2), S. cerevisiae, endogenous; source: endogenous, S. cerevisiae CB010 double-tagged strain; within the purified native holoenzyme

binding result [3]: binds
binding result [2]: binds
B2: Med21, Mediator Middle module subunit (natural protein, S. cerevisiae, UniProt P47822 1-140, looked up)
chain: MTDRLTQLQICLDQMTEQFCATLNYIDKNHGFERLTVNEPQMSDKHATVVPPEEFSNTIDELSTDIILKTRQINKLIDSLPGVDVSAEEQLRKIDMLQKKLVEVEDEKIEAIKKKEKLLRHVDSLIEDFVDGIANSKKST
notes: Med21 (printed old name Sbr7), S. cerevisiae, endogenous; also called Sbr7; source: endogenous, S. cerevisiae CB010 double-tagged strain; within the purified native holoenzyme

binding result [3]: binds
B3: Med7, Mediator Middle module subunit (natural protein, S. cerevisiae, UniProt Q08278 1-222, looked up)
chain: MSNDPGNEVSSLYPPPPPYVKFFTQSNLEKLPKYKEKKAASAKQTAPNNSNGGSEEEITCALDYLIPPPMPKNQQYRAFGSIWQVKDQLPDLESMGLTQLYKKSTENESTNYQYKIQELRKLLKSLLLNYLELIGVLSINPDMYERKVENIRTILVNIHHLLNEYRPHQSRESLIMLLEEQLEYKRGEIREIEQVCKQVHDKLTSIQDTLRTGSQSPPSSSQ
notes: Med7, S. cerevisiae, endogenous; source: endogenous, S. cerevisiae CB010 double-tagged strain; within the purified native holoenzyme
